We go through 35 variants from the supplement of paper PMC7125110.

± gives the standard error. This sample holds only a part of the variants without activity.

First the molecules themselves.
B1: glmS ribozyme (parent)
chain: AUAAAAGCGCCAGAACUACAGAAAUGUAGUUGACGAGGAGGAGGUUUAUCGAAUUUUCGGCGGAUGCCUCCAAA

In one series the parent is B1. The series is described as follows: self-cleavage kobs at 2500 uM GlcN6P; higher = faster cleavage; RNA array. As to conditions: with glucosamine-6-phosphate. The method, boiled down: (§1)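 E. coli RNA polymerase transcribed barcoded ribozyme variants in situ on sequenced MiSeq chips, which were tracked via a hybridised Cy3 probe at 37 °C. Tiles were imaged over ~14 h after glucosamine-6-phosphate (40 μM to 10 mM) in HEPES/KCl/Mg(OAc)2 buffer was flowed in. Normalised per-tile medians were fit to one- or two-exponential decays for kobs, and kcat and KM came from weighted Michaelis–Menten fits.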
In the case of AUAAAAGCGCCGGAACUACAGAAAUGUAGUUGAUGAGGAGGAGGUUUAUCGUAUUUUCGGCGGAUGCCUCCAAA [A12G C34U A52U], the “self-cleavage kobs at 2500 uM GlcN6P” value was < 1e-05 s⁻¹. The same measure, in the same setting: as for AUAAAAGCGCCAGAACUACAGAAAUGUAGUUUACCAGGAGGAGGUGUAUCGAAUUUUCGGCGGAUGCCUCCAAA [G32U G35C U46G], the figure is < 1e-05 s⁻¹. On the same count and under the same terms, as for AUAAAAGCGCCAGCUCUACAGAAAUGUAGUUGACGAGGAGGAGGUUUAUCGAAUUUUCGGUGGAUGACUCCAAA [A14C A15U C61U C67A], the figure is < 1e-05 s⁻¹; as for AUAAAAGCGCCAGAACUACAGAAAUGUAGUUGACGAGGAGGUAGUUUAUCGAAUUUUCGUCGGAUGCCUCCAAA [A42U G43A G60U], < 1e-05 s⁻¹. On the same count and under the same terms, the result for AUAAAAGCGCCAGAACUACAGAAAUGUAGUUGACGAGGAGGAGGUUUAUCUUAGCUUCGGCGGAUGCCUCCAAA [G51U A52U U54G U55C] reads < 1e-05 s⁻¹; that for AUAAAAGCGCCGGAACUACAGAAAUGUAUUUGACGAGGAGGAGGUUGAUCGAAUUUUCGGCGGAUGCCUCCAAA [A12G G29U U47G], 6.74e-05 ± 1.5e-05 s⁻¹; that for AUAAAAGCGCCAGUACUACAGAAAUGUAGUUGACCAGGAGGAGGUUUAUCGAAUUUUCGGCGGAGUCCGCCAAA [A14U G35C U65G G66U U69G], < 1e-05 s⁻¹. As for AUAAAAGCGCCAGAACUACAGAAAUGUAGUUGACGAGGCGGCGGUUUAUCGAAUUUUCGGCGGAUACCUCCAAA [A39C A42C G66A], the “self-cleavage kobs at 2500 uM GlcN6P” value was 0.00014 ± 4.5e-05 s⁻¹. Same read-out and setting: the result for AUAAAAGCGCCAGGAGUACAGAAAUGUAGGUGACGAGGAGGAGGUUUACCGAAAUUUCGGCGGAUGGUUCCAAA [A14G C16G U30G U49C U54A C67G C68U] reads < 1e-05 s⁻¹; that for AUAAAAGCGCCAGAACUACAGAAAUGUAGGUGACGAGAAGGAGGUGUAUCGAAUUUUCGGCGGAUGCCUCCAAA [U30G G38A U46G], < 1e-05 s⁻¹. For the variant AUAAAAGCGCCAGCACUACAGAAAUGUAGGUGACGAGGAGGAGGUUUAUCGGAUUUUCGGCGGAUGCCUCCAAA [A14C U30G A52G], the “self-cleavage kobs at 2500 uM GlcN6P” value worked out at 4.27e-05 ± 2.1e-05 s⁻¹. Take AUAAAUGCACCAGAACUACAGAAAUGUAGUUGACGAGGAGGAGGUUUAUCGAAUUUUCGGAGGAUGCCUCCAAA [A6U G9A C61A]: the “self-cleavage kobs at 2500 uM GlcN6P” value is < 1e-05 s⁻¹.

Turning to AUAAAAGCGCCGGAACUACAGAAAUGUAGUUGACUAGGAGGAGGUUUAUCGAAUUUUCGGCGGAUGACUCCAAA [A12G G35U C67A], the “self-cleavage kobs at 2500 uM GlcN6P” value is < 1e-05 s⁻¹.

Regarding AUAAAAGCGCCAGAAUUACAGAAAUGUAGUUGACGUGCAGGAGGUUUAUCGAAUUUUCGCCGGAUGCCUCCAAA [C16U A36U G38C G60C], the “self-cleavage kobs at 2500 uM GlcN6P” value is < 1e-05 s⁻¹.

In the case of AUAAAAGCGCCAGAACUACAGAAAUGUAGUGGACGAGUAGGUGGUUUAUCGAAUUUUCGGCGGAUGUCUCCAAA [U31G G38U A42U C67U], the “self-cleavage kobs at 2500 uM GlcN6P” value was < 1e-05 s⁻¹. On the same count and under the same terms, the result for AUAAAAGCGCCUGAUCUACAGAAAUGUAGUUGACGAGGAGGAGGUUUAUAAAAUUUUCCGCGGAUGCCUCCAAA [A12U A15U C50A G51A G59C] reads < 1e-05 s⁻¹; that for AUAAAAGCGCCAGAACUACAGAAAUGUAGUAGACGAGGUGGAGGUUUAUCGAAUUUUCGGCGGAUGCCUGCAAA [U31A A39U C70G], 0.000232 ± 7.5e-05 s⁻¹; that for AUAAAAGCGUCAUAACUACAGAAAUGUAGUUGACGAGGAGGAGGUUUAUCGUAUUUUCGGCGGAUGCCUCCAAA [C10U G13U A52U], < 1e-05 s⁻¹.

Regarding AUAAAAGCGACAGAACUACAGAAAUGUAGUUGACGAGGAGGAGGUUUAUCGAAUUUUCGCCGCAUGAGUGUAAA [C10A G60C G63C C67A C68G C70G C71U], the “self-cleavage kobs at 2500 uM GlcN6P” value was found to be 4.85e-05 ± 2.2e-05 s⁻¹. Still for that read-out and setting: the result for AUAAAAGCGCGAGAACUACAGAAAUGUAGUUGACGAGGAGGAGGUUUAUCGAAUAUUCGGAGGAUGCCACGAAA [C11G U55A C61A U69A C71G] reads 0.000284 ± 8.5e-05 s⁻¹; that for AUAAAAGCUCCAGAACUACAGAAAUGUAGAUGACGAGAACGAGGUUUAUCGAAUUAUCGGCGGAUGCCUACAAA [G9U U30A G38A G40C U56A C70A], < 1e-05 s⁻¹; that for AUAAAUGCGCCAGAACUACAGAAAUGUAGUUGACGAGGAGGAGGUUUAUCGGAUUUUCGGCGGAUGCCCCCAAA [A6U A52G U69C], 5.25e-05 ± 2.2e-05 s⁻¹.

AUAAAAGCGCCAGAACUACAGAAAUGUAGUUGUCGAGGAGGAGGUUUAUCCACUUUUCGGCGGAUGCCUCCAAA [A33U G51C A53C]: the “self-cleavage kobs at 2500 uM GlcN6P” value is < 1e-05 s⁻¹. Same read-out and setting: as for AUAAAAGAGCCAGAACUACAGAAAUGUAGUUGACGAAGAGUAGGUUUUUGGAAUAUUCGGCGGAUGCCUCCAAA [C8A G37A G41U A48U C50G U55A], the figure is < 1e-05 s⁻¹.

With AUAAAAGCGCCAGAACUACAGAAAUGUAGUUGACGAGGAGGAGGUGUAGUGGAUUUUCGGCGGAUGCCUCCAAA [U46G U49G C50U A52G], the “self-cleavage kobs at 2500 uM GlcN6P” value was < 1e-05 s⁻¹. On the same count and under the same terms, the result for AUAAAAGCGCCAGGACUACAGAAAUGUAGUUGACGUGGCGGAGGUUUAUCGAAUUUUCGGCGGAUGCCUCCAAA [A14G A36U A39C] reads < 1e-05 s⁻¹. Still for that read-out and setting: the result for AUAAAAGCGUCAGAACUACAGAAAUGUAGUUGUCGAGGAGUAGGUUUACCGAAUUUUCGGCCGAUGCCUCCAAA [C10U A33U G41U U49C G62C] reads < 1e-05 s⁻¹; that for AUAAAAGCGCGAGAACUACAGAAAUGUAGUUGACGAGGAAGAGGUUUAUCGAUUUUUCGGCGGAUGCCUCCAAA [C11G G40A A53U], < 1e-05 s⁻¹; that for AUAAAACCGCCAGAACUACAGAAAUGUAGUUGACGAGGAGGAGCUUUAUUGAAUUUUCGGCAGAUGUCUUCAAA [G7C G44C C50U G62A C67U C70U], < 1e-05 s⁻¹. As for AUAAAAGCGCCAGAGCUACAGAAAUGUAGUUGACGAGGUGAAGGUUUAUCGAAUUUUCGGCGGAUGCCUCCAAA [A15G A39U G41A], the “self-cleavage kobs at 2500 uM GlcN6P” value was 0.000369 ± 0.0001 s⁻¹. Consider AUAAAAGCGCCAGAACUACAGAAAUGUAGUUGACGGGGAGGAGGUUUAUGGAAUUUUCGGCGGAUGGCUCCAAA [A36G C50G C67G], for which the “self-cleavage kobs at 2500 uM GlcN6P” value turned out to be 0.000124 ± 5.6e-05 s⁻¹. With AUAAAAGCGCCAGAAUUACAGAAAUGUAGUUGACGAGGAGGAGGUUAAUCGAAUUUUGGGCGGAUGCCUCCAAA [C16U U47A C58G], the “self-cleavage kobs at 2500 uM GlcN6P” value amounted to 2.28e-05 ± 1.1e-05 s⁻¹. As to AUAAAAGCGCCAGAACUACAGAAAUGUAGUUGACGAGGAGGAGGGUUUUCGAAUCUUCGGCGGAUGCCUCCAAA [U45G A48U U55C], the “self-cleavage kobs at 2500 uM GlcN6P” value is 8.04e-05 ± 2.8e-05 s⁻¹. With AUAAAAGAGCCAGAACUACAGAAAUGUAGUUUACGAGGAGGAGGUUUAUCGAAUUUUCAGCGGAUGCCUCCAAA [C8A G32U G59A], the “self-cleavage kobs at 2500 uM GlcN6P” value was < 1e-05 s⁻¹. Same read-out and setting: the result for AUAAAAGGGCCAGAACUACAGAAAUGUAGUUAACGAGGAGGAGGUUUAUCGAAGUUUCGGCGGAUGCCUCCAAA [C8G G32A U54G] reads < 1e-05 s⁻¹.

In a further series the parent is B1. The series is described as follows: self-cleavage kobs at 10000 uM GlcN6P; higher = faster cleavage; RNA array. To be noted: with glucosamine-6-phosphate. The method in brief:
as §1
In the case of AUAAAAGCGCCAGGAGUACAGAAAUGUAGGUGACGAGGAGGAGGUUUACCGAAAUUUCGGCGGAUGGUUCCAAA [A14G C16G U30G U49C U54A C67G C68U], the “self-cleavage kobs at 10000 uM GlcN6P” value is < 1e-05 s⁻¹.

Turning to AUAAAAGCUCCAGAACUACAGAAAUGUAGAUGACGAGAACGAGGUUUAUCGAAUUAUCGGCGGAUGCCUACAAA [G9U U30A G38A G40C U56A C70A], the “self-cleavage kobs at 10000 uM GlcN6P” value was < 1e-05 s⁻¹.
